Results reported in the supplement of paper PMC10567573.
± gives the standard deviation.

Experiment: protein stability index of a GFP-peptide fusion (GPS, HEK-293T) (PSI 1-6); higher = more stable
[1] = treatment: DMSO, c terminus: a fixed tail appended
[2] = treatment: MLN4924 1 uM, 8 h, c terminus: a fixed tail appended
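Also: 24-mer peptide tiles fused after GFP, lentivirally expressed, FACS-sorted into six equal bins by GFP/DsRed ratio, decoded by Illumina sequencing, PSI is the read-weighted mean bin number.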

Row | Sequence | protein stability index [1] | protein stability index [2] | protein stability index (treatment: DMSO, c terminus: native) | protein stability index (treatment: MLN4924 1 uM, 8 h, c terminus: native)
1 | SRFSSSTEQSSASRLMRRHKRRRR [DVL3] | 5.17 ± 0.084 | 5.257 ± 0.022 | – | –
2 | LAMWTTALLHQAETLQPSVWFGGR [TMEM175] | 3 ± 0.56 | 2.82 ± 0.86 | – | –
3 | GFTPLHMAVDKDTTNVGRYPVGRF [FEM1A] | 3.43 ± 0.089 | 3.6 ± 0.36 | – | –
4 | LSTIEELIKDAIVSTQPAMMVNLR [C2CD2L] | 2.2 ± 0.29 | 2.35 ± 0.17 | – | –
5 | ALQAAAHASVDIKDVLDFYKQWKE [SMG5] | 3.19 ± 0.14 | 3.37 ± 0.31 | – | –
6 | SSSKGTIRLCDMRASALCDRHTKF [PPP2R2B] | 3.01 ± 0.048 | 3.14 ± 0.078 | – | –
7 | PGPSWVRGSGPSVLSRLQDAAVVR [ALKBH7] | 3.58 ± 0.37 | 3.78 ± 0.23 | – | –
8 | DFDGKLKDIAGEFKEQLQALIPYV [ATL3] | 2.38 ± 0.47 | 2.94 ± 0.31 | – | –
9 | ICKEVQAEQEPTRKLFEVESVTHH [SPAG8] | 4.47 ± 0.12 | 4.77 ± 0.07 | – | –
10 | QSEPSEQDGVLDLSTKKSPCAGST [LCOR] | 5.39 ± 0.22 | 5.46 ± 0.29 | – | –
11 | GCSLTADGLPLHFFIQTVRPKDTV [MYORG] | 2.3 ± 0.25 | 2.19 ± 0.33 | – | –
12 | KSLSIQYLELDRLVWRNSIRSSFI [FBXO39] | 2.51 ± 0.64 | 2.28 ± 0.17 | – | –
13 | GALLAPIRVLLAFIVLFLLWPFAW [LPCAT4] | 2.68 ± 0.51 | 2.67 ± 0.54 | – | –
14 | TNTRSDLDVFGRGDNISDVSKFLE [LUC7L3] | 4.67 ± 0.16 | 4.76 ± 0.19 | – | –
15 | NGSYLELSSDRVANSSSEAPFPNV [ADAMTSL2] | 4.52 ± 0.18 | 4.28 ± 0.15 | – | –
16 | FMHSFEEKYGRAHPVFYQGTYSQA [FAF2] | 2.18 ± 0.21 | 2.42 ± 0.28 | – | –
17 | SPPGSTKRRKSMSGASPKESTNPE [CDC25A] | 5.47 ± 0.11 | 5.4 ± 0.21 | – | –
18 | LTASRQSFRMAMGNPSEFFVDVM [DVL3] | – | – | 2.41 ± 0.65 | 2.54 ± 0.85
19 | DRLTTFQENQARTHVLSKEVQHLR [LRRC45] | 4.12 ± 0.13 | 4.29 ± 0.16 | – | –
20 | YVQTVDFMRTDNTCVNLLLEASNY [KLHL13] | 2.6 ± 0.71 | 2.6 ± 0.66 | – | –
21 | ENQEKTEDQYEENSHLTSVPHWIN [ETS2] | 4.97 ± 0.21 | 4.95 ± 0.22 | – | –
22 | AEPAMPGRLYVHPDSPATGAHWMR [TBX5] | 3.5 ± 0.36 | 3.44 ± 0.21 | – | –
23 | IDGKGRGVIATKQFSRGDFVVEYH [KMT5A] | 2.91 ± 0.26 | 3.03 ± 0.35 | – | –

Row | Sequence | protein stability index [1] | protein stability index [2] | protein stability index (treatment: DMSO, c terminus: native) | protein stability index (treatment: MLN4924 1 uM, 8 h, c terminus: native)
24 | LLETANQTLQAMDSEDFPQAAKQI [FSD1] | 4.92 ± 0.26 | 4.79 ± 0.17 | – | –
25 | LWRYRTITFSGRPSRVHASEVESA [FBXO39] | 2.79 ± 0.27 | 3 ± 0.33 | – | –
26 | DSVDAQNICHVWHMNVEALPEWIS [RNF180] | 2.44 ± 0.34 | 2.62 ± 0.38 | – | –
27 | AAARPSSCRRKQEDDRDGLLAERE [TMEM106C] | 5.18 ± 0.25 | 5.3 ± 0.34 | – | –
28 | VRYLNAYTGIVLLRCRKEFYQLVW [POP5] | 1.94 ± 0.34 | 2.46 ± 0.74 | – | –
29 | KKKKTKKIKEKYIDQEELNKTKPI [HSP90AB1] | 4.28 ± 0.26 | 4.53 ± 0.31 | – | –
30 | VANRHGHTCLMISCYKGHREIARY [FEM1A] | 2.54 ± 0.5 | 2.41 ± 0.67 | – | –
31 | SLNALEDQDLDALMADLVADISEA [APBB1IP] | 4.58 ± 0.15 | 4.36 ± 0.23 | – | –
32 | HLIFSYSVWVLRDFPEDGLKIFTE [VPS39] | 2.98 ± 0.58 | 3.15 ± 0.54 | – | –
33 | RASRLQAPVLVAAPHSTFFDPIVL [LPCAT4] | 2.6 ± 0.31 | 2.71 ± 0.2 | – | –
34 | NQLILTASADRTVIVWDGDTTRQV [WDR41] | 2.79 ± 0.2 | 3.12 ± 0.2 | – | –
35 | CYSSRPLLCWSVWWALSTCGYFQV [SLC19A2] | 2.53 ± 0.19 | 3.55 ± 0.31 | – | –
36 | VLRHFHLLSDGSNTLSVSYKKGRM [SLC6A17] | 2.12 ± 0.39 | 2.61 ± 0.17 | – | –
37 | AASEAGRAMHLMKKREKQREQMEQ [FAM50A] | 5.05 ± 0.25 | 4.87 ± 0.17 | – | –
38 | RREVERKQKGSEENLDEAREQKEK [ADD1] | 5.5 ± 0.29 | 4.91 ± 0.87 | – | –
39 | YLESETETTEAIDDEGWLHSGDLG [ACSBG2] | 5.25 ± 0.14 | 5.497 ± 0.035 | – | –
40 | GRRATLQRLVEALEENELTSLAED [TRADD] | 4.54 ± 0.19 | 4.43 ± 0.14 | – | –
41 | SYMRNENVISELNIEDYFSHHLAV [FBXO39] | 2.26 ± 0.23 | 2.4 ± 0.38 | – | –
42 | ISDRYSPELRQLVLSLLSLEPAQR [NEK8] | 2.66 ± 0.38 | 2.3 ± 0.39 | – | –
43 | SGKESPPVSDTPDEGDEPMPIPED [IKZF1] | 5.866 ± 0.015 | 5.71 ± 0.38 | – | –
44 | NRDSSMKLSFRARAYGFRGPGPQL [CHGA] | 2.44 ± 0.28 | 2.47 ± 0.42 | – | –
45 | GKWPQVLFFPEGTCSNKKALLKFK [LPCAT4] | 2.52 ± 0.31 | 2.57 ± 0.45 | – | –
46 | RKSSKLIMELTGGGQESSGLNLGK [MYOZ1] | 3.72 ± 0.082 | 3.98 ± 0.26 | – | –

Row | Sequence | protein stability index [1] | protein stability index [2] | protein stability index (treatment: DMSO, c terminus: native) | protein stability index (treatment: MLN4924 1 uM, 8 h, c terminus: native)
47 | NTDVSMENMVTVGFFSCMGTLCIG [KCNK9] | 2.81 ± 0.52 | 2.8 ± 0.61 | – | –
48 | KRRPKREKHPKKPEPQQKAPLVPP [SRPK2] | 4.948 ± 0.035 | 4.99 ± 0.19 | – | –
49 | MSQRNLNAKTEQGPTGVTMTSNPI [CDK11A] | 4.53 ± 0.23 | 4.64 ± 0.17 | – | –
50 | LVGDDAACIAYIRLTQYMDGSGMP [CAMK2D] | 2.13 ± 0.91 | 1.66 ± 0.13 | – | –
51 | RADLVFIIDSSRSVNTHDYAKVKE [MATN2] | 2.51 ± 0.32 | 2.72 ± 0.34 | – | –
52 | VKEAPAPTPTSLEVSSPPDTTEEV [PDZK1] | 5.57 ± 0.25 | 5.49 ± 0.3 | – | –
53 | MITLSEAYIQIWKRRDNDETNQQG [USP39] | 3.15 ± 0.31 | 3.31 ± 0.38 | – | –
54 | QALGIPATECEFVGSLPVIVVGRL [LPCAT4] | 2.38 ± 0.58 | 2.29 ± 0.66 | – | –
55 | VSVRVQPRGRAHLLPNPYQQDFLG [C22orf15] | 2.2 ± 0.18 | 2.13 ± 0.35 | – | –
56 | QGEYSRKLEERFMTLAANHELMLR [CCDC89] | 3.15 ± 0.18 | 3.18 ± 0.25 | – | –
57 | ILNSMNSLRKSNTLCDVTLRVEQK [KLHL12] | 2.65 ± 0.18 | 2.9 ± 0.33 | – | –
58 | QETRGELQCRSPPRLHGAKAILDA [TBC1D10A] | 4.55 ± 0.27 | 4.62 ± 0.12 | – | –
59 | LRKHRELCDVVLVVGAKKIYAHRV [KLHL20] | 2.67 ± 0.5 | 2.3 ± 0.43 | – | –
60 | QCLEDLVNHYSEVADGLCCVLTTP [SLA] | 2.11 ± 0.39 | 2.27 ± 0.36 | – | –
61 | IVRLRTIGELLAPAAPFDKKCGRE [WSB1] | 2.64 ± 0.2 | 2.85 ± 0.34 | – | –
62 | KVQNECPGITRVYSIGRSVEGRHL [CPN1] | 3.08 ± 0.22 | 3.29 ± 0.5 | – | –
63 | ASVDYIRKLQKEQQRSKDLESRQR [TFE3] | 4.06 ± 0.24 | 4.18 ± 0.13 | – | –
64 | RVLQNLLTIEERYLPQCSYFKCVQ [CCND2] | 3.08 ± 0.22 | 2.69 ± 0.57 | – | –
65 | HALGSPEKVKACQGQYETIERLRS [TBC1D10A] | 4.03 ± 0.21 | 3.88 ± 0.3 | – | –
66 | ALATVSLLSLVTFTFLSAKCLQGN [PCDHGC5] | 3.2 ± 0.29 | 3.16 ± 0.23 | – | –
67 | QKPRGLEGGVLRGSKLEKGHLRGP [ZSWIM9] | 3.98 ± 0.63 | 3.82 ± 0.54 | – | –
68 | SSPPQGASPVPESSLTADLLSVDA [SNAP91] | 5.28 ± 0.18 | 5.34 ± 0.16 | – | –
69 | IKEVIFMSDKYHDSDEATAARLLF [DCTD] | 2.57 ± 0.27 | 2.62 ± 0.32 | – | –

Row | Sequence | protein stability index [1] | protein stability index [2] | protein stability index (treatment: DMSO, c terminus: native) | protein stability index (treatment: MLN4924 1 uM, 8 h, c terminus: native)
70 | ILKLEQENCTLVTTFRGHTGGVTA [WDFY2] | 2.79 ± 0.13 | 3.51 ± 0.5 | – | –
71 | SGIPEVKCYLNGVKVPGIVRLRTL [CLCN6] | 2.4 ± 0.53 | 1.91 ± 0.35 | – | –
72 | SCKENCTCSSCLLRAPTISDLLND [EDARADD] | 4.85 ± 0.41 | 4.83 ± 0.33 | – | –
73 | HEEEPLGTAGPLALARDLLSETAD [GMPPB] | 5.38 ± 0.42 | 5.18 ± 0.15 | – | –
74 | NTPFQLSIAPPEAEGVVLSDSPDA [PPTC7] | 5.41 ± 0.15 | 5.37 ± 0.18 | – | –
75 | YNPPKDDGSTYKIELEGISVMVMR [GAN] | 2.14 ± 0.28 | 2.24 ± 0.22 | – | –
76 | QAKTHTDSSEKELEPEAAEEALEN [ACBD3] | 5.52 ± 0.2 | 5.65 ± 0.24 | – | –
77 | CMHEVHTFVSTCQAIDATVAAELL [HES6] | 2.8 ± 0.85 | 2.34 ± 0.3 | – | –
78 | CWLPLLAGLLPPVPAQKFSALTFL [SMOC2] | 3.54 ± 0.15 | 2.82 ± 0.53 | – | –
79 | QENEEKEQVANKGEPLALPLDAGE [BEX1] | 5.59 ± 0.27 | 5.48 ± 0.56 | – | –
80 | IYVKLIEECTDLQKEGEFSTCFTE [OAS1] | 2.37 ± 0.2 | 2.26 ± 0.28 | – | –
81 | IHLSAPCIYSEVMEALKLQPGLSF [PCMTD1] | 2.33 ± 0.67 | 2.61 ± 0.34 | – | –
82 | CIRLWKYALDMQQSNLEPLSPMTA [FEM1A] | 2.52 ± 0.54 | 2.34 ± 0.35 | – | –
83 | EPDLRHLVLVVNTLRRIQASMAPA [SERTAD1] | 2.66 ± 0.11 | 2.51 ± 0.14 | – | –
84 | GCWAWPLAGLSVGRSSLTACSLPL [PXN] | 1.99 ± 0.86 | 2.15 ± 0.82 | – | –
85 | IKRGDILPPEKGREVAKELGLPYY [RHOBTB1] | 3.2 ± 0.22 | 3.37 ± 0.39 | – | –
86 | MENVPKENKVVEKAPVQNEAPALG [BEX5] | 5.33 ± 0.19 | 5.46 ± 0.16 | – | –
87 | QDDISSSYTTTTTITAPPSRVLQN [SCD] | 4.71 ± 0.3 | 4.89 ± 0.3 | – | –
88 | QEANARERNRMHGLNDALDNLRKV [NEUROD6] | 4.55 ± 0.14 | 4.56 ± 0.23 | – | –
89 | ASTEADKRLSRFDIEMSMRGDIFE [NLN] | 4.02 ± 0.57 | 4.14 ± 0.27 | – | –
